Measurements: patent publication US20140056907A1 (Regeneron, published 2014)

T1: human ASIC3 (human, UniProt Q9UHC3 1-531)
T1 construct: whole, on cells; Expressed on 3T3 cells (3T3/hASIC3) or HEK293 cells (HEK/hASIC3-QCells); also called hASIC3
T1 sequence (looked up): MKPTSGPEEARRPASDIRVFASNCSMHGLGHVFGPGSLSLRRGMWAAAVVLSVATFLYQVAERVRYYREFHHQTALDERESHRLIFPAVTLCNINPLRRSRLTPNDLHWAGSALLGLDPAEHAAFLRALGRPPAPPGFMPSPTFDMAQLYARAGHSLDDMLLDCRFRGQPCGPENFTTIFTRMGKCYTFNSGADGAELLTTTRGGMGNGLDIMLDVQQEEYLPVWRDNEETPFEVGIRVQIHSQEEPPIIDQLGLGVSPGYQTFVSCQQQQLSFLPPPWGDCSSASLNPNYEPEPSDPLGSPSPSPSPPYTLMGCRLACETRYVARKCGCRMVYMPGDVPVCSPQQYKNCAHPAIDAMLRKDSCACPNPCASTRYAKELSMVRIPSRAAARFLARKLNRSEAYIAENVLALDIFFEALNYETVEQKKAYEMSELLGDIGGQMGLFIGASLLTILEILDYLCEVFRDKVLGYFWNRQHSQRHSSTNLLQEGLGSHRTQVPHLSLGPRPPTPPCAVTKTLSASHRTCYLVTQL

B1: H3M6726N (antibody, V domains shown)
VH: EVQLLESGGVLVQPGGSLRLSCAASGFNFNNYDMSWVRQAPGKGLEWVSVISASGRNTYYADSVKGRFTISRDNSKISLYLQMNSLRPEDTAVYYCAKDHLVHYYYGMDVWGQGTTVTVSS
VL: DIMMTQSPLSLSVTPGEPASISCRSSQSLLHSNGYNYLDWYLQKSGQSPHLLIYLGSNRASGVPDRFSGSGSGTDFTLKISRVEAEDGGVYYCMQALQTPRTFGQGTKVEIK
notes: Chimeric: human variable, mouse constant domains; H3M prefix marks the Fc, isotype not spelled out
B2: H3M7102N (antibody, V domains shown)
VH: EVQLLASGGGLVQPGGSLRLSCAASGFTFSSFAMSWVRQAPGKGLEWVSGISGSGGSTYYADSVKGRFTISRDNSKNTLYLQMNSLRAEDTAAYYCAKEAYKWQPWGQGIRVTVSS
VL: DIQMTQSPSTLSASVGDRVSITCRASQSISSWLAWYQQKPGKAPKLLIYKASNLDSGVPSRFSGSGSGTDFTLTISSLQPDDFATYYCQQYNSYSYTFGQGTKLEIK
notes: as for B1

Biological target: T1, human ASIC3
Test: FACS, 3T3/hASIC3 cells, 10 nM antibody
From the text: For these experiments, four cell lines were constructed: (a) a mouse fibroblast 3T3 cell line stably transfected to overexpress full length human ASIC3 (3T3/hASIC3; amino acids 1-531 of NCBI accession number NP_{—}004760.1), (b) a 3T3 cell line stably transfected to co-express full length human ASIC1a and human ASIC3 (3T3/hASIC1/3; amino acids 1-528 of NCBI accession number NP_{—}001086.2 and amino acids 1-531 of NCBI accession number NP_{—}004760.1), (c) […] a stably transfected 3T3 cell line expressing the full-length mouse ASIC3 channel (3T3/mASIC3; amino acids 1-530 of NCBI accession number NP_{—}892045.2), and (d) a 3T3 cell line stably transfected to co-express full length mouse ASIC1a and mouse ASIC3 (3T3/mASIC1/3; amino acids 1-526 of NCBI accession number NP_{—}033727 and amino acids 1-530 of NCBI accession number NP_{—}892045.2). Antibody binding was determined using flow cytometry (FACS).
To perform the FACS binding experiments, adherent cells were collected with cold Millipore Accutase 3-5 minutes, spun and resuspended in ice-cold FACS buffer (PBS, 2% HI-FBS and 0.09% Na-azide). Anti-ASIC1 antibody at final concentrations of 10 nM was added for 20-30 minutes on ice. Cells were washed with 900 μL ice-cold FACS buffer, spun, and resuspended in 100 μL ice-cold FACS buffer. A secondary antibody which recognizes human Fc (Jackson Immuno Research, #109-136-098) and is conjugated to allophycocyanin, was then added to the cell mixture at a final concentration of 2.5 ug/mL. After incubating for 20 minutes on ice, the cells were washed and resuspended in FACS buffer, then sorted and analyzed on a flow cytometer (FACSCanto II, BD Biosciences, San Jose, Calif.) to determine relative binding by the candidate antibodies to the tested cell lines. Histograms of cells stained with anti-ASIC1 antibodies were compared with those of cells stained with secondary antibody alone. Percentage of ASIC1 signal over secondary antibody alone was calculated using FlowJo software (Tree Star, Ashland, Oreg.).

Row | Binder | binding result
1 | B1 | binds
2 | B2 | binds
